According to patent publication US20220168346A1 (published 2022):
Values belong to the molecule of their own block, whether it stands above or below them.

What was measured:
[1] = target: C*07:01/gp100479-487 multimer (human; mouse) (UniProt P01901); assay: pHLA multimer staining of TILs before stimulation (day 0), flow cytometry
[2] = target: C*07:01/gp100479-487 multimer (human; mouse) (UniProt P01901); assay: pHLA multimer staining of TILs after one peptide-specific stimulation with C*07:01-artificial APCs (day 14), flow cytometry
[3] = target: T1, gp100 peptide on HLA-C*07:01 (human); assay: multimer staining
T1 peptide: RYGSFSVTL
Experimental: T cells (1×10⁵) were incubated for 30 minutes at 37° C. in the presence of 50 nM dasatinib (LC laboratories). The cells were then washed and incubated with 5-10 μg/ml of multimer for 30 minutes at room temperature, and R-phycoerythrin-conjugated AffiniPure Fab fragment goat anti-mouse IgG1 (Jackson ImmunoResearch Laboratories) was added for 15 minutes at 4° C. Next, the cells were washed three times and costained with an anti-CD8 mAb for 15 minutes at 4° C. Dead cells were finally discriminated using the LIVE/DEAD Fixable Dead Cell Stain kit.

percentage of multimer+ cells in CD8+ T cells [1]: 0.14%
percentage of multimer+ cells in CD8+ T cells [2]: 1.2%
Molecule: C*07:01+ melanoma TILs

binding result [3]: recognises
B1: C*07:01/gp100479-487 TCR (TCR, V domains shown)
Valpha: DQQVKQNSPSLSVQEGRISILNCDYTNSMFDYFLWYKKYPAEGPTFLISISSIKDKNEDGRFTVFLNKSAKHLSLHIVPSQPGDSAVYFCAANSGNTPLVFGKGTRLSVIA
Vbeta: EPEVTQTPSHQVTQMGQEVILRCVPISNHLYFYWYRQILGQKVEFLVSFYNNEISEKSEIFDDQFSVERPDGSNFTLKIRSTKLEDSAMYFCASSLMGGGNTIYFGEGSWLTVV
